In test [1] the target is T1, recombinant human sIL-6R (human, UniProt P08887 20-358, limits assumed).
T1 construct: Bought; also called human soluble IL6R
T1 sequence (looked up): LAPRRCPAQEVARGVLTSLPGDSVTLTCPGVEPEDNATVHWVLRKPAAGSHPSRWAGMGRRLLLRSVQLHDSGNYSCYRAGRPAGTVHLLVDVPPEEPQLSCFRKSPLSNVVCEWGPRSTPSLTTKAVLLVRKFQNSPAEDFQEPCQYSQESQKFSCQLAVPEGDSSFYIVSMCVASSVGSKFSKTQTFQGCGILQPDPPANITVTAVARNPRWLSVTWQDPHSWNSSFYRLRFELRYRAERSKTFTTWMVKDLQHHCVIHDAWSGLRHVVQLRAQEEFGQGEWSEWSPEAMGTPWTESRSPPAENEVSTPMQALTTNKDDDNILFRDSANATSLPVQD
Briefly: ELISA: Xceptor captured on anti-human IgG-Fc, sIL-6R added, detected with anti-IL-6R-biotin. On the procedure:
Added to each well of a 96-well plate was 100 μl goat anti-human IgG-Fc (ICN Pharmaceuticals, Costa Mesa, Calif.) from a 2 μg/ml solution in PBS, pH 7.2-7.4. The plates were covered, and incubated overnight at 4° C. After washing four times with PBS-T, 250 μl Blocking buffer (PBS-T with 3% BSA or 10% normal goat serum) was added to each well, the plate was covered, and incubated at room temperature for 2 hours (or at 4° C. overnight). […] After washing the plate five times with PBS-T, added in duplicate wells was 100 μl/well recombinant human sIL-6R(R&D Systems) from a […] solution in Working buffer, the plate was covered, and incubated at room temperature for about 1 to 2 hours. After washing the plate five times with PBS-T, added 100 μl/well anti-human IL-6R-biotin (R&D Systems) from a 100 ng/ml solution in Working buffer, the plate was covered, and incubated at room temperature for about 1 to 2 hours. After washing the plate five times with PBS-T, 100 μl per well horse radish peroxidase-conjugated streptavidin (Zymed, San Francisco, Calif.) diluted 1:4,000 in Working buffer was added, the plate was covered, and incubated at room temperature for 30 minutes. After washing the plate six times with PBS-T, 100 μl per well 3,3,5,5-tetramentylbenzidine (TMB) substrate solution (Pierce, Rockford, Ill.) was added for about 3 to 5 minutes and then the reaction was stopped with 50 μl Stop buffer (1N H₂SO₄) per well. The absorbance of each well was read at 450 nm.
A general note: An ELISA detects its analyte on a solid surface through an enzyme-linked reagent.

Test [2] deals with T2, recombinant human TNF-α (human, UniProt P01375 77-233).
T2 construct: also called rhTNFα
T2 sequence (P01375 77-233 limits assumed): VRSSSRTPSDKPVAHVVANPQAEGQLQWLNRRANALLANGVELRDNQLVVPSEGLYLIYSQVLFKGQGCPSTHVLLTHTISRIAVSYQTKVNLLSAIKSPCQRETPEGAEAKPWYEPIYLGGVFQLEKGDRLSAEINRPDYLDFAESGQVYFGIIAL
Briefly: ELISA: Xceptor captured on anti-human IgG-Fc, rhTNF-α added, detected with anti-TNF-α-biotin. On the procedure: Added to each well of a 96-well plate was 100 μl goat anti-human IgG-Fc (ICN Pharmaceuticals, Costa Mesa, Calif.) from a 2 μg/ml solution in PBS, pH 7.2-7.4. The plate was covered, and incubated overnight at 4° C. After washing four times with PBS-T, 250 μl Blocking buffer was added to each well, the plate was covered, and incubated at room temperature for 2 hours (or at 4° C. overnight). […] After washing the plate five times with PBS-T, 100 μl per well horse radish peroxidase-conjugated streptavidin (Jackson ImmunoResearch, West Grove, Pa.) diluted 1:1,000 in Working buffer was added, the plate was covered, and incubated at room temperature for 30 minutes. After washing the plate six times with PBS-T, 100 μl per well 3,3,5,5-tetramentylbenzidine (TMB) substrate solution (Pierce, Rockford, Ill.) was added for about 3 to 5 minutes and then the reaction was stopped with 50 μl Stop buffer (1N H₂SO₄) per well. The absorbance of each well was read at 450 nm.

Test [3] has as its target T2, recombinant human TNF-α. Nature of the test: ELISA: plate-coated HIL-6, Xceptor, then rhTNF-α, detected with anti-TNF-α-biotin (simultaneous binding). On the procedure:
The plate was covered, and incubated overnight at 4° C. […] The absorbance of each well was read at 450 nm.

Test [4] addresses TNFα (Biacore analyte of Example 12) (UniProt P01375 77-233, limits assumed). Nature of the test: SPR (Biacore T100): binder captured by anti-human Fc, TNFα injected. The text has this: The unoccupied sites of the activated surface were blocked by ethanolamine. […] At the end of the cycle, the surface was regenerated gently using 3M MgCl₂ which dissociates protein bound to anti hFc capture antibody. […] The value of this parameter was then fixed and the data from the low density surface were used to calculate the association rate constant, kₐ and the Rₘₐₓ. This strategy maximizes signal-to-noise for the dissociation phase data and reduces the mass transport limitation for the association phase data. BIAevaluation software was used to perform these analyses.

This is an account of results in US20110152173A1 (EMERGENT PRODUCT DEVELOPMENT SEATTLE, published 2011).

Chain of TNFα (Biacore analyte of Example 12) (P01375 77-233 limits assumed): as above

B1: TRU(XT6)-1019 (Fc fusion)
chain: LPAQVAFTPYAPEPGSTCRLREYYDQTAQMCCSKCSPGQHAKVFCTKTSDTVCDSCEDSTYTQLWNWVPECLSCGSRCSSDQVETQACTREQNRICTCRPGWYCALSKQEGCRLCAPLRKCRPGFGVARPGTETSDVVCKPCAPGTFSNTTSSTDICRPHQICNVVAIPGNASMDAVCTSTSPTRSMAPGAVHLPQPVSTRSQHTQPTPEPSTAPSTSFLLPMGPSPPAEGSTGDTGEPKSSDKTHTCPPCPAPEAAGAPSVFLFPPKPKDTLMISRTPEVTCVVVDVSHEDPEVKFNWYVDGVEVHNAKTKPREEQYNSTYRVVSVLTVLHQDWLNGKAYACAVSNKALPAPIEKTISKAKGQPREPQVYTLPPSRDELTKNQVSLTCLVKGFYPSDIAVEWESNGQPENNYKTTPPVLDSDGSFFLYSKLTVDKSRWQQGNVFSCSVMHEALHNHYTQKSLSLSPGQRHNNSSLNTRTQKARHSPNSEVQLLESGGGLVQPGGSLRLSCAASGFTFSWYLMHWVRQAPGKGLEWVSGIWPSGGHTLYADSVKGRFTISRDNSKNTLYLQMNSLRAEDTAVYYCAREPLLWFGELSYNWFDPWGQGTLVTVSSGGGGSGGGGSGGGGSQDIQMTQSPSSVSASVGDRVTITCRASQGISSWLAWYQQKPGKAPKLLIYAASSLQSGVPSRFSGSGSGTDFTLTISSLQPEDFATYYCQQANSFPLTFGGGTKVEIK
notes: not trimmed; also called Xceptor TNFRSF1B::anti-HIL6
Turning to B1, the binding result is “no binding” in test [1] and “binds” in test [2].

B2: TRU(XT6)-1006 (Fc fusion)
chain: LPAQVAFTPYAPEPGSTCRLREYYDQTAQMCCSKCSPGQHAKVFCTKTSDTVCDSCEDSTYTQLWNWVPECLSCGSRCSSDQVETQACTREQNRICTCRPGWYCALSKQEGCRLCAPLRKCRPGFGVARPGTETSDVVCKPCAPGTFSNTTSSTDICRPHQICNVVAIPGNASMDAVCTSTSPTRSMAPGAVHLPQPVSTRSQHTQPTPEPSTAPSTSFLLPMGPSPPAEGSTGDTGEPKSSDKTHTCPPCPAPEAAGAPSVFLFPPKPKDTLMISRTPEVTCVVVDVSHEDPEVKFNWYVDGVEVHNAKTKPREEQYNSTYRVVSVLTVLHQDWLNGKAYACAVSNKALPAPIEKTISKAKGQPREPQVYTLPPSRDELTKNQVSLTCLVKGFYPSDIAVEWESNGQPENNYKTTPPVLDSDGSFFLYSKLTVDKSRWQQGNVFSCSVMHEALHNHYTQKSLSLSPGQRHNNSSLNTRTQKARHSPNSEVQLLESGGGLVQPGGSLRLSCAASGFTFSQYNMIWVRQAPGKGLEWVSWISSSGGTEYADSVKGRFTISRDNSKNTLYLQMNSLRAEDTAVYYCAKDRGYGSGSYGAYDAFDIWGQGTMVTVSSGGGGSGGGGSGGGGSQDIQMTQSPSSLSASVGDRVTITCQTSQSIDRYLNWYQQKAGEAPKLLIYAASSLQSGVPSRFSGSGSGTDFTLTISSLQPEDFASYYCQQSYRTPRTFGQGTKVEIK
notes: not trimmed; also called Xceptor TNFRSF1B::HIL6
B2: the binding result in test [3] is listed as “binds”.

B3: TRU(XT6)-1058 (Fc fusion)
chain: LPAQVAFTPYAPEPGSTCRLREYYDQTAQMCCSKCSPGQHAKVFCTKTSDTVCDSCEDSTYTQLWNWVPECLSCGSRCSSDQVETQACTREQNRICTCRPGWYCALSKQEGCRLCAPLRKCRPGFGVARPGTETSDVVCKPCAPGTFSNTTSSTDICRPHQICNVVAIPGNASMDAVCTSTSPTRSMAPGAVHLPQPVSTRSQHTQPTPEPSTAPSTSFLLPMGPSPPAEGSTGDTGEPKSSDKTHTCPPCPAPEAAGAPSVFLFPPKPKDTLMISRTPEVTCVVVDVSHEDPEVKFNWYVDGVEVHNAKTKPREEQYNSTYRVVSVLTVLHQDWLNGKAYACAVSNKALPAPIEKTISKAKGQPREPQVYTLPPSRDELTKNQVSLTCLVKGFYPSDIAVEWESNGQPENNYKTTPPVLDSDGSFFLYSKLTVDKSRWQQGNVFSCSVMHEALHNHYTQKSLSLSPGQRHNNSSLNTRTQKARHSPNSEVQLLESGGGLVQPGGSLRLSCAASGFTFSMYTMHWVRQAPGKGLEWVSWISPSGGWTKYADSVKGRFTISRDNSKNTLYLQMNSLRAEDTAVYYCAVSPWGGPFDYWGQGTLVTVSSGGGGSGGGGSGGGGSQDIQMTQSPSTLSASVGDRVTITCRASQSISSWLAWYQQKPGKAPKLLIYKASTLESGVPSRFSAGGSGTEFTLTISSLQPDDFGTYYCQQYNSYSLTFGGGTKVEII
notes: as for B1
For the molecule B3, the binding result in test [1] is “no binding”; in test [2], “binds”.

B4: TRU(XT6)-1002 (Fc fusion)
chain: LPAQVAFTPYAPEPGSTCRLREYYDQTAQMCCSKCSPGQHAKVFCTKTSDTVCDSCEDSTYTQLWNWVPECLSCGSRCSSDQVETQACTREQNRICTCRPGWYCALSKQEGCRLCAPLRKCRPGFGVARPGTETSDVVCKPCAPGTFSNTTSSTDICRPHQICNVVAIPGNASMDAVCTSTSPTRSMAPGAVHLPQPVSTRSQHTQPTPEPSTAPSTSFLLPMGPSPPAEGSTGDTGEPKSSDKTHTCPPCPAPEAAGAPSVFLFPPKPKDTLMISRTPEVTCVVVDVSHEDPEVKFNWYVDGVEVHNAKTKPREEQYNSTYRVVSVLTVLHQDWLNGKAYACAVSNKALPAPIEKTISKAKGQPREPQVYTLPPSRDELTKNQVSLTCLVKGFYPSDIAVEWESNGQPENNYKTTPPVLDSDGSFFLYSKLTVDKSRWQQGNVFSCSVMHEALHNHYTQKSLSLSPGQRHNNSSLNTRTQKARHSPNSEVQLLESGGGLVQPGGSLRLSCAASGFTFSFYQMHWVRQAPGKGLEWVSGIYPSGGYTKYADSVKGRFTISRDNSKNTLYLQMNSLRAEDTAVYYCARDLGYGSSWYYFDYWGQGTLVTVSSGGGGSGGGGSGGGGSQSALTQPASVSGSPGQSITISCSGTDSDVGGYNHVSWYQQHPGKAPKLIIYDVDHRPSGISNRFSGSKSGNTASLTISGLQAEDEADYYCSSYRSGSTYVFGTGTKVTVL
notes: also called Xceptor TNFRSF1B::anti-HIL6
B4: the binding result in test [1] is on record as “no binding”. In test [4], this molecule had a Kd of 3.1 pM, a koff of 0.00014 s⁻¹ and an on-rate constant (kon) of 4.7e+07 M⁻¹ s⁻¹.

B5: TRU(X6T)-1019 (Fc fusion)
chain: EVQLLESGGGLVQPGGSLRLSCAASGFTFSWYLMHWVRQAPGKGLEWVSGIWPSGGHTLYADSVKGRFTISRDNSKNTLYLQMNSLRAEDTAVYYCAREPLLWFGELSYNWFDPWGQGTLVTVSSGGGGSGGGGSGGGGSQDIQMTQSPSSVSASVGDRVTITCRASQGISSWLAWYQQKPGKAPKLLIYAASSLQSGVPSRFSGSGSGTDFTLTISSLQPEDFATYYCQQANSFPLTFGGGTKVEIKTGEPKSSDKTHTCPPCPAPEAAGAPSVFLFPPKPKDTLMISRTPEVTCVVVDVSHEDPEVKFNWYVDGVEVHNAKTKPREEQYNSTYRVVSVLTVLHQDWLNGKAYACAVSNKALPAPIEKTISKAKGQPREPQVYTLPPSRDELTKNQVSLTCLVKGFYPSDIAVEWESNGQPENNYKTTPPVLDSDGSFFLYSKLTVDKSRWQQGNVFSCSVMHEALHNHYTQKSLSLSPGQRHNNSSLNTRTQKARHSPNSLPAQVAFTPYAPEPGSTCRLREYYDQTAQMCCSKCSPGQHAKVFCTKTSDTVCDSCEDSTYTQLWNWVPECLSCGSRCSSDQVETQACTREQNRICTCRPGWYCALSKQEGCRLCAPLRKCRPGFGVARPGTETSDVVCKPCAPGTFSNTTSSTDICRPHQICNVVAIPGNASMDAVCTSTSPTRSMAPGAVHLPQPVSTRSQHTQPTPEPSTAPSTSFLLPMGPSPPAEGSTGD
notes: also called Xceptor in the reverse orientation
B5: the results for the binding result in test [1] and in test [2] were “no binding” and “binds”, respectively.

By Kd is commonly meant the concentration at which binding is half-saturated. A word on the koff: it is the rate constant with which the complex falls apart. Read a high koff as fast dissociation. Usually kon stands for a measure of how fast the partners come together.
